From PMC7128310, “Negative Regulation of TLR Signaling by BCAP Requires Dimerization of Its DBB Domain” (The Journal of Immunology Author Choice, 2020)

Target: the molecule itself
Assay: SEC-MALS; 50 μl at 2 mg/ml on Superdex 200 Increase 10/300 GL

B1: BCAP DBB-ANK (residues 179-404) (domain or fragment, human, UniProt Q6ZUJ8 179-404, looked up)
chain: MVVQPDRIRCGAETTVYVIVRCKLDDRVATEAEFSPEDSPSVRMEAKVENEYTISVKAPNLSSGNVSLKIYSGDLVVCETVISYYTDMEEIGNLLSNAANPVEFMCQAFKIVPYNTETLDKLLTESLKNNIPASGLHLFGINQLEEEDMMTNQRDEELPTLLHFAAKYGLKNLTALLLTCPGALQAYSVANKHGHYPNTIAEKHGFRDLRQFIDEYVETVDMLKSH
notes: B cell adaptor protein (BCAP), human, DBB and ANK domains, residues 179-404; Cloned into pMCSG7 or pMCSG9; source: E. coli BL21(DE3), purified (Ni-NTA, TEV, Superdex 200)
  stoichiometry N: 2
